Data set [1] concerns trypsin. Nature of the data set: Protein protection against proteolytic enzymes (trypsin, then poly(allyl amine) disassembly). The data set is classed as biochemical, bovine. Here is the method:
In order to assess the enzymatic activity of the lysozyme model protein, a turbidimetric enzymatic assay was performed by measuring the decrease in optical density of a suspension of Micrococcus lysodeikticus lyophilized cells, a natural substrate for lysozyme, in PB. Nanocomplexes and also free lysozyme were extracted from the dry powders as previously described, at a protein concentration of […] (as quantified by BCA assay). 10 mg of lyophilised cells were added to 20 mL of PB. 300 μL of this substrate suspension were added to 150 μL of particle solution and the decrease in optical density was measured at λ=460 nm as a function of time for 60 sec. The absorbance decay plots from 0 to 10 sec were fitted to a linear equation and the enzymatic activities were then determined from the slope of the fitted line. Not spray-dried free lysozyme was used in this work as reference (100% enzymatic activity).
Nanocomplexes were recovered from the dry powders as previously described, at a protein concentration of 37 μg mL^−1 (as quantified by BCA assay). 657 μg of trypsin (≥10,000 BAEE units/mg protein) were added to 4 mL of particle solution and the mixture was kept at room temperature for 3 h under gentle stirring. […] Lysozyme activity was then quantified as previously described. […]

Data set [2] deals with complement proteins. Nature of the data set: Complement activation assay (residual haemolytic capacity of normal human serum). The conditions noted are these: at the protein concentrations investigated. Here is the method: Polymer-lysozyme nanocomplexes or free lysozyme were kept in contact with normal human serum (NHS) and the residual haemolytic capacity was measured to study the complement activation. NHS was received from healthy volunteers, aliquoted and stored at −80° C. until use. Sheep erythrocytes were sensitised by rabbit anti-sheep erythrocyte antibodies at a final dilution of 1/800 v/v and these sensitised sheep erythrocytes were suspended at a final concentration of 1×10^8 cells mL^−1 in veronal-buffer saline (VBS2+, containing 0.5 mM Mg and 0.15 mM Ca2+). VBS2+ and NHS were mixed with polymer-lysozyme nanocomplexes or free lysozyme at final protein concentration of 1.116 mg mL^−1 so that the final dilution of NHS in the reaction mixture was 1/4 (v/v) in a final volume of 400 μl. […] The supernatant was collected and the optical density was measured at 415 nm with Dynex absorbance microplate reader (Dynex technologies, USA).
Sample without serum was used here as […] (100% complement activation, 0% sensitised sheep erythrocytes lysis) and employed to correct the absorbance values from the samples. […] They can be calculated by a linear fit to a log-log version of the Von Krogh (equation 1). Particularly, in this study, the data was expressed as the percentage of complement activation relative to 100% complement activation observed with our positive control samples.

With “lysozyme: Model protein; samples named lysozyme contained no polymer (lysozyme 5% w/w)”, in data set [1] (no polymer added to the dry powder), the “decrease in enzymatic activity after trypsin” value was > 60%. Moreover, the “residual lysozyme activity after trypsin” value in data set [1] (trypsin 3 h in PB, then poly(allyl amine) 1 h, % of initial activity) was “less than 40%”. For the same substance, the “hemolysis of sensitized sheep erythrocytes without serum” value in data set [2] is reported as “did not lead to hemolysis”.

The values above are taken from patent publication US11583587B2, “Polymer” (VECTURA LIMITED, priority 2016, dated 2023).
